B1: survivin peptide 8-22 (peptide)
peptide: PAWQPFLKDHRISTF
notes: synthetic 15-mer
B2: survivin peptide 59-73 (peptide)
peptide: FCFKELEGWEPDDDP
notes: synthetic 15-mer
B3: survivin peptide 87-101 (peptide)
peptide: LSVKKQFEELTLGEF
notes: synthetic 15-mer
B4: survivin peptide 96-110 (peptide)
peptide: LTLGEFLKLDRERAK
notes: synthetic 15-mer
B5: survivin peptide 90-104 (peptide)
peptide: KKQFEELTLGEFLKL
notes: synthetic 15-mer
B6: survivin peptide 1-15 (peptide)
peptide: MGAPTLPPAWQPFLK
notes: synthetic 15-mer
B7: survivin peptide 84-98 (peptide)
peptide: CAFLSVKKQFEELTL
notes: synthetic 15-mer
B8: survivin peptide 52-66 (peptide)
peptide: PDLAQCFFCFKELEG
notes: synthetic 15-mer
B9: survivin peptide 56-70 (peptide)
peptide: QCFFCFKELEGWEPD
notes: synthetic 15-mer
B10: survivin peptide 41-55 (peptide)
peptide: AGFIHCPTENEPDLA
notes: synthetic 15-mer
B11: survivin peptide 122-136 (peptide)
peptide: KEFEETAKKVRRAIE
notes: synthetic 15-mer
B12: survivin peptide 17-31 (peptide)
peptide: HRISTFKNWPFLEGC
notes: synthetic 15-mer
B13: survivin peptide 128-142 (peptide)
peptide: AKKVRRAIEQLAAMD
notes: synthetic 15-mer

Each binder was assayed against T1, HLA-DR15 molecule (DRB1*1501) (human) (assay: competitive ELISA, tracer A3 152-166).
T1 construct: HLA class II heterodimer
B1 was tested, and the IC50 was 5.2 µM.
In the case of B2, the IC50 is reported as 8 µM.
For B3, the IC50 was 4.8 µM.
Binder B4 has an IC50 of 0.49 µM.
For B5, the IC50 was 7.5 µM.
In the case of B6, the IC50 is reported as 80 µM.
B7 gave an IC50 of 0.574 µM.
Binder B8 has an IC50 of 2.25 µM.
Work on B9 yielded an IC50 of 3 µM.
Work on B10 yielded an IC50 of 7 µM.
In the case of B11, the IC50 is reported as 1.2 µM.
B12 gave an IC50 of 0.003 µM.
Binder B13 has an IC50 of 0.284 µM.

What follows are binders tested against T2, HLA-DRB4 molecule (DRB4*0101) (human) (assay: competitive ELISA, tracer E2/E168).
T2 construct: HLA class II heterodimer
Binder B1 has an IC50 of 29 µM.
B3 gave an IC50 of 9.8 µM.
Binder B4 has an IC50 of 3.6 µM.
Binder B7 has an IC50 of 1.33 µM.
Binder B10 has an IC50 of 0.328 µM.
B12 was tested, and the IC50 was 7.5 µM.
B13 gave an IC50 of 1.8 µM.

What follows are binders tested against T3, HLA-DR7 molecule (DRB1*0701) (human) (assay: competitive ELISA, tracer YKL).
T3 construct: HLA class II heterodimer
Work on B1 yielded an IC50 of 9.39 µM.
With B2 the IC50 was 9 µM.
Work on B3 yielded an IC50 of 0.705 µM.
In the case of B4, the IC50 is reported as 5.64 µM.
Work on B5 yielded an IC50 of 0.14 µM.
In the case of B7, the IC50 is reported as 0.179 µM.
B8 gave an IC50 of 6.67 µM.
B9 showed an IC50 of 13 µM.
B10 gave an IC50 of 3.73 µM.
B11 was tested, and the IC50 was 20 µM.
B12 gave an IC50 of 0.018 µM.
For B13, the IC50 was 1.34 µM.

The binders below were run against T4, HLA-DR3 molecule (DRB1*0301) (human) (assay: competitive ELISA, tracer MT 2-16).
T4 construct: HLA class II heterodimer
B1 was tested, and the IC50 was 16 µM.
For B4, the IC50 was 5.48 µM.
With B7 the IC50 was 2.57 µM.
In the case of B8, the IC50 is reported as 11.8 µM.
B11 showed an IC50 of 5.81 µM.
B13 showed an IC50 of 12 µM.

Each binder was assayed against T5, HLA-DR11 molecule (DRB1*1101) (human) (assay: competitive ELISA, tracer HA 306-318).
T5 construct: HLA class II heterodimer
Binder B2 has an IC50 of 1.84 µM.
B3 was tested, and the IC50 was 2.06 µM.
With B4 the IC50 was 0.007 µM.
For B5, the IC50 was 2.35 µM.
B6 gave an IC50 of 0.063 µM.
With B7 the IC50 was 0.01 µM.
With B8 the IC50 was 0.092 µM.
B9 was tested, and the IC50 was 0.363 µM.
Work on B10 yielded an IC50 of 1.15 µM.
Work on B11 yielded an IC50 of 0.31 µM.
B12 showed an IC50 of 0.247 µM.

Each binder was assayed against T6, HLA-DR4 molecule (DRB1*0401) (human) (assay: competitive ELISA, tracer HA 306-318).
T6 construct: HLA class II heterodimer
Work on B1 yielded an IC50 of 46 µM.
Work on B2 yielded an IC50 of 58 µM.
Work on B3 yielded an IC50 of 6.45 µM.
B4 gave an IC50 of 1.67 µM.
Work on B5 yielded an IC50 of 0.748 µM.
In the case of B7, the IC50 is reported as 19 µM.
B8 gave an IC50 of 22 µM.
For B10, the IC50 was 5 µM.
B12 was tested, and the IC50 was 9.2 µM.

These binders were tested against T7, HLA-DRB5 molecule (DRB5*0101) (human) (assay: competitive ELISA, tracer HA 306-318).
T7 construct: HLA class II heterodimer
B1 was tested, and the IC50 was 2.19 µM.
Binder B2 has an IC50 of 45 µM.
B3 gave an IC50 of 6 µM.
With B4 the IC50 was 0.103 µM.
Work on B5 yielded an IC50 of 0.28 µM.
B6 showed an IC50 of 8 µM.
Binder B7 has an IC50 of 1.77 µM.
Work on B8 yielded an IC50 of 5.35 µM.
For B9, the IC50 was 20 µM.
Binder B10 has an IC50 of 3.38 µM.
Binder B11 has an IC50 of 0.447 µM.
Binder B12 has an IC50 of 0.302 µM.

Each binder was assayed against T8, HLA-DR1 molecule (DRB1*0101) (human) (assay: competitive ELISA, tracer HA 306-318).
T8 construct: HLA class II heterodimer
B1 gave an IC50 of 6.57 µM.
In the case of B2, the IC50 is reported as 3.76 µM.
B3 gave an IC50 of 0.15 µM.
Work on B4 yielded an IC50 of 0.018 µM.
With B5 the IC50 was 0.04 µM.
With B6 the IC50 was 10.8 µM.
With B7 the IC50 was 2.83 µM.
B8 was tested, and the IC50 was 4.1 µM.
For B9, the IC50 was 1.6 µM.
Work on B10 yielded an IC50 of 2.31 µM.
B11 showed an IC50 of 5.56 µM.
B12 showed an IC50 of 0.019 µM.

These binders were tested against T9, HLA-DR13 molecule (DRB1*1301) (human) (assay: competitive ELISA, tracer B1 21-36).
T9 construct: HLA class II heterodimer
With B1 the IC50 was 2.31 µM.
With B4 the IC50 was 0.302 µM.
B7 was tested, and the IC50 was 0.845 µM.
B8 showed an IC50 of 23 µM.
B11 gave an IC50 of 0.995 µM.
Binder B12 has an IC50 of 0.735 µM.

The binders below were run against T10, HLA-DRB3 molecule (DRB3*0101) (human) (assay: competitive ELISA, tracer LOL 191-210).
T10 construct: HLA class II heterodimer
In the case of B1, the IC50 is reported as 8.72 µM.
B3 showed an IC50 of 6.8 µM.
B5 showed an IC50 of 48 µM.
Binder B7 has an IC50 of 11.8 µM.
B8 showed an IC50 of 12.6 µM.
Work on B9 yielded an IC50 of 12 µM.
For B10, the IC50 was 10 µM.

The binders below were run against T11, HLA-DP401 molecule (DPB1*0401) (human, UniProt P20036 29-222, limits assumed) (assay: competitive ELISA, tracer Oxy 271-287).
T11 construct: HLA class II heterodimer; also called DP*0401
B1 was tested, and the IC50 was 21 µM.
Work on B3 yielded an IC50 of 3.67 µM.
B4 gave an IC50 of 2.92 µM.
B5 was tested, and the IC50 was 0.048 µM.
Work on B6 yielded an IC50 of 9.2 µM.
B7 gave an IC50 of 0.167 µM.
Work on B12 yielded an IC50 of 0.04 µM.
B13 was tested, and the IC50 was 13 µM.

These binders were tested against T12, HLA-DP402 molecule (DPB1*0402) (human, UniProt P20036 29-222, limits assumed) (assay: competitive ELISA, tracer Oxy 271-287).
T12 construct: HLA class II heterodimer; also called DP*0402
B1 gave an IC50 of 10.5 µM.
In the case of B3, the IC50 is reported as 6.39 µM.
In the case of B4, the IC50 is reported as 0.62 µM.
Work on B5 yielded an IC50 of 0.019 µM.
Binder B6 has an IC50 of 6.93 µM.
For B7, the IC50 was 0.113 µM.
In the case of B8, the IC50 is reported as 4.58 µM.
B12 gave an IC50 of 0.029 µM.
For B13, the IC50 was 20 µM.

— patent US20090004214A1 (COMMISSARIAT A L ENERGIE ATOMIQUE, published 2009)
